From patent publication US20200270345A1 (JOINT STOCK COMPANY BIOCAD, published 2020)

Columns and labels:
human CD47-Fc [1] = biological target: T1, human CD47-Fc (human, UniProt Q08722 19-134); experiment: competitive ELISA without VHH: uninhibited SIRP-Fc / CD47-Fc signal
T1 construct: Leu19-Val134 is the natural numbering printed; also called human CD47-Fc receptor; human CD47-Fc (Biocad); not shown: Fc tag of the expression plasmid

CD47 proprietary = CD47 proprietary (human, UniProt Q08722 19-134, limits assumed); experiment: ELISA on CD47 proprietary, 450 nm
Sequence of CD47 proprietary (Q08722 19-134 limits assumed): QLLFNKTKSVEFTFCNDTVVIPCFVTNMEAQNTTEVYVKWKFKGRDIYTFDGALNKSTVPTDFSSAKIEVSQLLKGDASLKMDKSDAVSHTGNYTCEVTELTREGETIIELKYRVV

human CD47-Fc [2] = biological target: T1, human CD47-Fc; experiment: competitive ELISA, competitor SIRP-Fc; lower OD means more blocking
human CD47-Fc [3] = biological target: T1, human CD47-Fc; experiment: BLI (Octet Red 96), CD47-Fc on ARG2 sensor, VHH in growth medium, 1:1 model
Experimental: VHH antibody fragments were measured to provide an example of analysis of kinetic parameters of interaction of antibody fragments that specifically bind to CD47 receptor. Dissociation constant (kdis)-based comparative screening for VHH fragments was performed using Octet Red 96 and ARG2 amino-reactive biosensors (Pall-ForteBio). Affinity constants can be calculated based on the exact protein concentration in the test solution, and, since cell growth media were used as a protein solution and protein concentrations were not measured, the candidates were compared to each other by using the dissociation constant thereof. Biosensors were pre-rehydrated for an hour in water. After activating biosensors, CD47-Fc at a concentration of 10 μg/ml in acetate buffer pH4 was non-specifically (by NH2 groups) immobilized onto the biosensor. The sensors were then immersed into wells containing cell growth medium with specific VHHs (from about 1 μg of VHH in 1 ml of medium), where the complex was associated. The sensors were then immersed in a buffer solution, where the subsequent stage of dissociation of the complex took place. 1/10 of the volume of 10× working buffer was added to the test specimens in E. Coli growth medium containing anti-CD47 VHH fragments. The obtained curves were analyzed using OctetDataAnalysis (version 7.0) according to the standard procedure with 1:1 interaction model.

human CD47-Fc [4] = biological target: T1, human CD47-Fc; experiment: ELISA, CD47-Fc coated, VHH in E. coli supernatant, anti-myc detection, 450 nm
Experimental: ELISA was used to measure the binding of specific test antibody fragments of Example 4 to human CD47-Fc. ELISA well plates (Nunc ImmunoMaxisorp) were covered with 50 μl/well of human CD47-Fc (Biocad) (0.5 μg/ml in 1× coating carbonate buffer), sealed, and incubated overnight at 4° C. All further stages were performed in accordance with standard ELISA protocols with a high-performance automated platform based on robotic systems such as GenetixQ-pix2xt (Molecular Devices) and Tecan Freedom EVO 200 (Tecan). Non-specific binding was blocked by adding a blocking buffer BB (200 μl 0.5% fat-free milk in PBS). Plates were incubated on a shaker for 1 h at room temperature. After washing with PBS-Tween, each cell was coated with 100 μl of cell supernatant containing the test antibody fragment. The plates were incubated on a shaker for 1 hour at room temperature; further, each plate well was 5 times washed with PBS-Tween buffer. After washing, mouse anti-MYC IgG clone 9E10 (ThermoFisher Scientific) (50 μl/well) was added to PBS-Tween (1:5000). The plates were shaken in rotation shaker (50 min at room temperature) and then 5 times washed with PBS-Tween buffer as described above. After washing, anti-mouse IgG HRP conjugate (ThermoFisher Scientific) (50 μl/well) was added to PBS-Tween (1:10000). The plates were shaken in rotation shaker (50 min at room temperature) and then 5 times washed with PBS-Tween buffer as described above. Colorimetric signal was obtained by adding TMB (50 μl/well) until saturated (average of 10-12 min); further color development was blocked by adding a stop solution (25 μl/well, 1% sulfuric acid). Color signal was measured at 450 nm using a suitable Tecan-Sunrise plate reader (Tecan). Antibody binding was proportional to the signal produced.

T1 sequence (Q08722 19-134): as the sequence (Q08722 19-134 limits assumed) above
Sequence of SIRP-Fc ligand (BIOCAD) (P78324 31-370 limits assumed): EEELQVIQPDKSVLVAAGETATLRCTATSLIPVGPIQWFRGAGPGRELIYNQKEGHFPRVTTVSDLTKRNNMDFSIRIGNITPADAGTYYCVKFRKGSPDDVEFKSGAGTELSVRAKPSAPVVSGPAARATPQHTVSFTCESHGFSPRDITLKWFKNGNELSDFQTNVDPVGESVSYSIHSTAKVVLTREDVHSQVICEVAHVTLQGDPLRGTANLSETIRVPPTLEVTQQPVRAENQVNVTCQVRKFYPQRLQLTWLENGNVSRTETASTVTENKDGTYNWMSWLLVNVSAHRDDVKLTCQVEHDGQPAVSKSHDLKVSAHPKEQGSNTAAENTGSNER

Row | OD units, competitive screening to SIRP-Fc (human CD47-Fc [1]) [OD units] | OD units, binding on CD47 proprietary (CD47 proprietary) [OD units] | OD units, competitive screening to SIRP-Fc (human CD47-Fc [2]) [OD units] | koff (human CD47-Fc [3]) [s⁻¹] | OD units, initial screening for CD47-Fc (human CD47-Fc [4]) [OD units] | Molecule
1 | 0.481 |  |  |  |  | SIRP-Fc ligand (BIOCAD) (from UniProt P78324 31-370) (Fc fusion)
2 |  | 0.448 | 0.095 | 0.006 | 0.4 | BCD106-02_L.Alecto.VHHSel2_MP1_H10_78 (VHH, Llama anti-CD47 VHH tested as E. coli culture supernatant; not shown: myc and His6 tags at the C-terminus of the VHH (pET-22)) VHH: QVKLEESGGGLVQPGGSLRLSCAASRSISSINAMNWYRQAPGKRREWVAQITGEGITNYRDSVKGRFTITSDNAKNTMYLQMNSLKPEDTAVYYCNAFVIHTTSEVYWGQGTLVTVSS
3 |  | 0.498 | 0.088 | 0.008 | 0.319 | BCD106-02_L.Alecto.VHHSel2_MP1_G7_53 (VHH, Llama anti-CD47 VHH tested as E. coli culture supernatant; not shown: myc and His6 tags at the C-terminus of the VHH (pET-22)) VHH: QVKLEESGGGLVQPGGSLTLSCAASGIISSINAMNWYRQAPGKRREWVAQITGEGITNCRDSWKGRFSITSDSANNTMYLQMNNLKPDDTDVYYCNAFVIHTTSEIYWGLGTTVTVSS

More lines, now with the values behind:

Row | Molecule | OD units, competitive screening to SIRP-Fc (human CD47-Fc [1]) [OD units] | OD units, binding on CD47 proprietary (CD47 proprietary) [OD units] | OD units, competitive screening to SIRP-Fc (human CD47-Fc [2]) [OD units] | koff (human CD47-Fc [3]) [s⁻¹] | OD units, initial screening for CD47-Fc (human CD47-Fc [4]) [OD units]
4 | BCD106-02_L.Alecto.VHHSel2_MP1_G5_37 (VHH, Llama anti-CD47 VHH tested as E. coli culture supernatant; not shown: myc and His6 tags at the C-terminus of the VHH (pET-22)) VHH: AVQLVDSGGGLVQPGGSLRLSCAASRSIFSINAMNWYRQAPGNRREWVAQITDEGITNYVDSVKGRFTITRDNAKNTMYLQMNSLKPEDTAVYYCNAFVITTTSEIYWGQGTTVTVSS |  | 0.426 | 0.143 | 0.006 | 0.166
5 | BCD106-02_L.Alecto.VHHSel2_MP1_C7_49 (VHH, Llama anti-CD47 VHH tested as E. coli culture supernatant; not shown: myc and His6 tags at the C-terminus of the VHH (pET-22)) VHH: AVQLVDSGGGLVQPGGSLRLSCAASRSIFSINAMNWYRQPPGNRREWVAQITDEGITNYVDSVKGRFTITRDNAKNTMYLQMNSLKPEDTAVYYCNAFVITTTSEIYWGQGTTVTVSS |  | 0.379 | 0.14 | 0.005 | 0.127
6 | BCD106-02_L.Alecto.VHHSel2_MP1_F10_76 (VHH, Llama anti-CD47 VHH tested as E. coli culture supernatant; not shown: myc and His6 tags at the C-terminus of the VHH (pET-22)) VHH: DVQLVESGGGLVQPGGSLRLSCAASRNIFSINAMNWYRQAPGKRREWVAQITSEGITNYVDSVKGRFTITRDNAKNTMYLQMNSLKPEDTAVYYCNAFVITASSEVYWGQGTTVTVSS |  | 0.312 | 0.114 | 0.01 | 0.213
7 | BCD106-02_L.Alecto.VHHSel2_MP1_B9_64 (VHH, Llama anti-CD47 VHH tested as E. coli culture supernatant; not shown: myc and His6 tags at the C-terminus of the VHH (pET-22)) VHH: DVQLVESGGGLVQPGGSLTLSCAASRNIFRINAMNWYRQAPGKRREWVAPITSEGITNYVDSVKGRFTITRDNAKNTMYLQMNSLKPEDTAVYYCNACLITASSEVYWGQGTLVTVSS |  | 0.24 | 0.188 | 0.008 | 0.129
